From patent US6951717

biological target: viral gp41 (HIV-1 transmembrane protein) of HIV-1IIIB (HIV-1IIIB) (UniProt P04578); assay: cell-based or functional assay

| Substance | Cell fusion (IC90) [nM] | HIV infectivity (IC90) [nM] |
| --- | --- | --- |
| DP107 (SEQ ID NO:25), synthetic peptide corresponding to amino acids 558 to 595 of HIV-1LAI gp41 | 1000 | 1000 |
| DP178 (SEQ ID NO:1), synthetic peptide corresponding to amino acids 638 to 673 of HIV-1LAI gp41 | 1 | 80 |
| M41 (maltose binding protein fused to the extracellular domain of HIV-1 gp41, residues 540-686) (from UniProt P0AEX9 27-392; P03377 540-686) | > 50000 | > 16000 |
| M41-P (M41 with an Ile to Pro mutation at position 578) (from UniProt P0AEX9 27-392; P03377 540-686) | 83 | 66 |
